We go through one molecule from publication PMC11286758, “The small CRL4^CSA ubiquitin ligase component DDA1 regulates transcription-coupled repair dynamics” (Nature Communications, 2024).

In this test the target is T1, CSA-DDB1 (human, UniProt Q13216 1-396; Q16531 1-1140).
T1 construct: CSA, human, full-length coding gene; pAC8-CSA-Strep II clone; DDB1, human, full-length coding gene, synthesized and codon-optimized for insect cells; also called CSA/DDB1 complex; CSA-DDB1 alone; source: Sf9, co-expressed (biGBac), purified (Nickel-chelating sepharose, Resource Q, Superdex 200)
Put plainly: nano-differential scanning fluorimetry; complexes at 2 µM in 20 mM HEPES pH 7.5, 150 mM NaCl, 5% glycerol, 0.5 mM TCEP; Prometheus NT.48, 350/330 nm ratio, 1 °C/min from 20 to 90 °C; compared with CSA-DDB1 alone. To be noted: both partners purified.

T1 sequence (Q13216 whole entry, chain 1 of 2): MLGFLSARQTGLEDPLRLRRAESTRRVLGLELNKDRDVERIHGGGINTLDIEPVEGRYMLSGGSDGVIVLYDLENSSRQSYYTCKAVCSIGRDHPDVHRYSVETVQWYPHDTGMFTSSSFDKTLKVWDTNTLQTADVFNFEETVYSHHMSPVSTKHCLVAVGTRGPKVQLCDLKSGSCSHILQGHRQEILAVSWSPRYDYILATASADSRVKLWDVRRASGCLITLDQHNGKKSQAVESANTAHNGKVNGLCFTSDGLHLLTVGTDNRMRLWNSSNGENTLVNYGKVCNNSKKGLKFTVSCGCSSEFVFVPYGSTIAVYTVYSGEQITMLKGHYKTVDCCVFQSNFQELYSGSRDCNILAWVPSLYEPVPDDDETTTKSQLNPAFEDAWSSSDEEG
T1 sequence (Q16531 whole entry, chain 2 of 2): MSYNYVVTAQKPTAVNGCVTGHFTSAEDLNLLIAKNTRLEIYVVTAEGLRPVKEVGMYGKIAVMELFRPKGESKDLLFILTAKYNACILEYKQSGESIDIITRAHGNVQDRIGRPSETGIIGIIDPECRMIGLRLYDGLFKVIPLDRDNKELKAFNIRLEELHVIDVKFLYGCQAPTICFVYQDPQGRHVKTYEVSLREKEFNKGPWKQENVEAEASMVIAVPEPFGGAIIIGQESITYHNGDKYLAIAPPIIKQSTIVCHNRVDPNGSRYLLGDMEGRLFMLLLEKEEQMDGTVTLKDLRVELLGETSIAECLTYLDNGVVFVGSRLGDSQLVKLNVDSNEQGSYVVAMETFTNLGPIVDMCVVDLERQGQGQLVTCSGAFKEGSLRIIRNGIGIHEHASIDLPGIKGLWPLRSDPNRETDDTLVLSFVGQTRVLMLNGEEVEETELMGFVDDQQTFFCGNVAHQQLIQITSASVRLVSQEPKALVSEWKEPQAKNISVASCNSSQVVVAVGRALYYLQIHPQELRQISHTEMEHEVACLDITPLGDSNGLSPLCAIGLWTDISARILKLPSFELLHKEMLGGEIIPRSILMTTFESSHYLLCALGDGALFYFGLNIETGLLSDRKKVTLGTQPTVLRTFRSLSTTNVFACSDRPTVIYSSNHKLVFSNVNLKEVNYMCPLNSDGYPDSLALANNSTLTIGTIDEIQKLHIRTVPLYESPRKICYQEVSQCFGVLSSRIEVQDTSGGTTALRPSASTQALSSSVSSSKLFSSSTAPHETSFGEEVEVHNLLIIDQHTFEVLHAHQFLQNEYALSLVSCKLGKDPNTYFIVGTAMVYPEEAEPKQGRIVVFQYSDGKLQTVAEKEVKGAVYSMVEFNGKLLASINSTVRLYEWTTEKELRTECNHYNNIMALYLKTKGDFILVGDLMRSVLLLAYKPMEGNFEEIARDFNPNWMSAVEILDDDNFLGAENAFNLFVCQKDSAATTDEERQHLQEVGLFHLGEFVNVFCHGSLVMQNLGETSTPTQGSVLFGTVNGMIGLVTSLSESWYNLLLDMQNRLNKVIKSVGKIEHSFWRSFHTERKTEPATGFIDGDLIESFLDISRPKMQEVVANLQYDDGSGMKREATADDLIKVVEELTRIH

B1: DDA1^1-52 (domain or fragment)
chain: not shown
notes: DDA1, human, residues 1-52; Used as the complex CSA-DDB1-DDA1^1-52; also called DDA1 C-terminal truncation; DDA1Δ
Regarding B1, the binding result is given as “binds”.
